According to the supplement of paper PMC6757056:
± gives the standard deviation of the averaged measurements.

B1: library; a variant is named by its letters at N, in order (parent)
chain: GCUGUCACCGAGAAACUGUGAAGUAUAUCUUAAACCUGGGCACUUAAAAGAUAUAUGGAGUUAGUAGUGCAACCUGCUCGGUCUGAUGAGUCCNNNNNNGGACGAAACAGC

Experiments:
[1] = variants of: B1; assay: normalized RNA/DNA level without ligand (relative to sTRSVctl = 100) (log10 (% of sTRSVctl)); HEK293T; ligand: cyclic di-GMP (c-di-GMP-II aptamer); higher = less ribozyme self-cleavage, higher mRNA level; details: reporter: mCherry (pCS4076), ligand present: no
Outline: (§1)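 Ribozyme switch library plasmids with mCherry reporters (eGFP in certain ligand experiments) went into HEK293T cells at 4 µg per 6-well well. Where ligand was used, it was applied 1 h before transfection, and total RNA was extracted with EDTA 72 h later for reverse transcription, amplification, barcoding and sequencing. RNA level is the RNA-to-DNA read ratio normalized to a spiked-in non-cleaving sequence or to the leading sequences, then scaled and log-transformed. Scaling was ×100 with log10, the leading set comprised 25 sequences, and the cutoff was ≥100 DNA reads.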

[2] = variants of: B1; assay: normalized RNA/DNA level with ligand (relative to sTRSVctl = 100) (log10 (% of sTRSVctl)); HEK293T; ligand: cyclic di-GMP (c-di-GMP-II aptamer); ligand concentration (+) RNA-Seq: 1 mM; higher = less ribozyme self-cleavage, higher mRNA level; details: reporter: mCherry (pCS4076), ligand present: yes
Outline: as §1

Variant | normalized RNA/DNA level without ligand (log10) [1] | normalized RNA/DNA level with ligand (log10) [2]
UGGUCA | 1.78 ± 0.061 | 1.89 ± 0.067
UGGUUG | 1.686 ± 0.011 | 1.83 ± 0.11
UGGUUA | 1.67 ± 0.019 | 1.85 ± 0.042
UGGUUU | 1.761 ± 0.011 | 1.88 ± 0.12
UGGUUC | 1.7 ± 0.033 | 1.83 ± 0.12
AGGUGC | 1.75 ± 0.037 | 1.82 ± 0.11
AGGUGG | 1.69 ± 0.031 | 1.78 ± 0.12
AGGUGU | 1.66 ± 0.041 | 1.77 ± 0.06
UGUAAG | 1.73 ± 0.022 | 1.84 ± 0.089
UGUAAC | 1.718 ± 0.0028 | 1.84 ± 0.12
UGUAAU | 1.679 ± 0.01 | 1.84 ± 0.14
GGGUAA | 1.61 ± 0.091 | 1.7 ± 0.12
GGGUAG | 1.85 ± 0.057 | 1.89 ± 0.059
GGGUAC | 1.73 ± 0.012 | 1.8 ± 0.045
GGGUAU | 1.75 ± 0.041 | 1.9 ± 0.23
AGGUAC | 1.67 ± 0.038 | 1.81 ± 0.077
AGGUAG | 1.54 ± 0.034 | 1.66 ± 0.046
GGGCGC | 1.84 ± 0.027 | 1.92 ± 0.091
UGUCGA | 1.76 ± 0.033 | 1.81 ± 0.14
UGUCGG | 1.74 ± 0.027 | 1.86 ± 0.077

Variant | normalized RNA/DNA level without ligand (log10) [1] | normalized RNA/DNA level with ligand (log10) [2]
UGUCGU | 1.648 ± 0.0058 | 1.84 ± 0.12
UGUCGC | 1.76 ± 0.049 | 1.85 ± 0.15
CGGUAG | 1.731 ± 0.0046 | 1.84 ± 0.038
AGUCGC | 1.731 ± 0.0037 | 1.85 ± 0.12
AGUCGA | 1.71 ± 0.036 | 1.84 ± 0.081
AGUCGU | 1.6615 ± 0.0012 | 1.79 ± 0.08
AGUCGG | 1.8 ± 0.051 | 1.87 ± 0.082
AGUGGC | 1.6 ± 0.079 | 1.79 ± 0.11
AGUGGA | 1.44 ± 0.11 | 1.62 ± 0.086
GGGCUC | 1.88 ± 0.051 | 1.98 ± 0.042
AGUCUU | 1.726 ± 0.0047 | 1.84 ± 0.11
AGUCUA | 1.55 ± 0.016 | 1.77 ± 0.12
AGUCUC | 1.764 ± 0.0076 | 1.88 ± 0.085
AGUCUG | 1.629 ± 0.012 | 1.76 ± 0.056
CGUACG | 1.777 ± 0.013 | 1.857 ± 0.017
CGUACC | 1.74 ± 0.039 | 1.89 ± 0.09
AGUGCU | 1.67 ± 0.043 | 1.82 ± 0.096
AGUGCG | 1.7 ± 0.058 | 1.85 ± 0.095
UGUACG | 1.792 ± 0.0062 | 1.87 ± 0.032
UGUACA | 1.778 ± 0.0071 | 1.88 ± 0.095

Variant | normalized RNA/DNA level without ligand (log10) [1] | normalized RNA/DNA level with ligand (log10) [2]
UGUGGA | 1.58 ± 0.067 | 1.76 ± 0.062
UGUGGC | 1.742 ± 0.0053 | 1.89 ± 0.082
GGUAAC | 1.743 ± 0.0073 | 1.85 ± 0.077
GGUAAG | 1.49 ± 0.12 | 1.65 ± 0.098
GGUAAU | 1.61 ± 0.039 | 1.72 ± 0.037
GGUAAA | 1.441 ± 0.0091 | 1.62 ± 0.13
GGGGCA | 1.752 ± 0.011 | 1.88 ± 0.081
GGGGCC | 1.85 ± 0.069 | 1.94 ± 0.13
GGUGGA | 1.55 ± 0.11 | 1.7 ± 0.065
GGUGGC | 1.68 ± 0.03 | 1.83 ± 0.076
GGUCCG | 1.9 ± 0.057 | 1.96 ± 0.13
GGUCCA | 1.777 ± 0.015 | 1.95 ± 0.022
GGUCCC | 1.83 ± 0.045 | 1.92 ± 0.11
GGGUCC | 1.91 ± 0.098 | 1.95 ± 0.14
GGGUCA | 1.828 ± 0.013 | 1.91 ± 0.16
CGGGCG | 1.83 ± 0.066 | 1.94 ± 0.092
CGGGCC | 1.92 ± 0.02 | 1.95 ± 0.067
CGGGCU | 1.84 ± 0.033 | 1.92 ± 0.14
